Values of other authors in US20130136753A1, “PAXILLIN AS A THERAPEUTIC OR DIAGNOSTIC MARKER FOR CANCER” (UNIVERSITY OF ROCHESTER, priority 2010, published 2013).

B1: Aptamer aptTOV1: aptamer binding ovarian clear cell carcinoma cell line TOV-21G (nucleic acid)
chain: UCCAGAGUGACGCAGCAGAUCUGUGUAGGAUCGCAGUGUAGUGGACAUUUGAUACGACUGGCUCGACACGGUGGCUUA
modifications: listed as RNA, chemistry not given here
B2: Aptamer S6: RNA aptamer binding HER-2 overexpressing breast cancer cells (nucleic acid)
chain: GGGAGAUACCAGCUUAUUCAAUUUGGAUGGGGAGAUCCGUUGAGUAAGCGGGCGUGUCUCUCUGCCGCCUUGCUAUGGGGAGAUAGUAAGUGCAAUCU
modifications: listed as RNA, chemistry not given here

What was measured:
[1] = system: ovarian clear cell carcinoma cell line TOV-21G; conditions: cited from earlier work
[2] = system: HER-2 overexpressing breast cancer cells; conditions: cited from earlier work

| Molecule | binding to TOV-21G cells [1] | binding to HER-2 overexpressing breast cancer cells [2] |
| --- | --- | --- |
| B1 | high affinity | – |
| B2 | – | binds specifically |
